Measured values as given in IntAct's records for PubMed 23297211.

B1: Small glutamine-rich tetratricopeptide repeat-containing protein 2 (Saccharomyces cerevisiae), Q12118 (parent)
chain: MSASKEEIAALIVNYFSSIVEKKEISEDGADSLNVAMDCISEAFGFEREAVSGILGKSEFKGQHLADILNSASRVPESNKKDDAENVEINIPEDDAETKAKAEDLKMQGNKAMANKDYELAINKYTEAIKVLPTNAIYYANRAAAHSSLKEYDQAVKDAESAISIDPSYFRGYSRLGFAKYAQGKPEEALEAYKKVLDIEGDNATEAMKRDYESAKKKVEQSLNLEKTVPEQSRDADVDASQGASAGGLPDLGSLLGGGLGGLMNNPQLMQAAQKMMSNPGAMQNIQKMMQDPSIRQMAEGFASGGGTPNLSDLMNNPALRNMAGNLFGGAGAQSTDETPDNENKQ
partner: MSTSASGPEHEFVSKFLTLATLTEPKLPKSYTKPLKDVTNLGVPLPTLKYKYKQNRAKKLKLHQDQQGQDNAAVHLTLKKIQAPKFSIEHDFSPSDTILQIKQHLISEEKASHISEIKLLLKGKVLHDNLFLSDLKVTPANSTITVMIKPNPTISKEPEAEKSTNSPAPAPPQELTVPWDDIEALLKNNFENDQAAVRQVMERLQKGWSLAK

Variants of: B1
Conditions: with mdy2_yeast MDY2, Q12285

effect of a mutation on the interaction	Variant
decreasing interaction strength	E42R
disrupting interaction strength	D38R

Second part, the variant before the results:

Variant	effect of a mutation on the interaction
D31R	decreasing interaction strength
F16Y	with no effect
V35A	decreasing interaction strength
